In PMC12301659:

Assays:
[1] = target: separase [also known as separin (ESPL1)], endogenous [human (endogenous in HCT116)]; test: proximity ligation assay (PLA); conditions: HCT116 cells stably expressing GFP–Centrin2; antibodies against HA and separase; parent: 44; read off a plot
[2] = target: 14-3-3ε (endogenous) [human (endogenous in HCT116)]; test: proximity ligation assay (PLA); conditions: HCT116 cells stably expressing GFP–Centrin2; antibodies to the Myc epitope tag and 14-3-3ε; parent: 52; read off a plot

Substance | response (puncta per cell) [1] | response (puncta per cell) [2]
HA-tagged 14-3-3ε WT mutant D127A; E134A [not stated] / separase [also known as separin (ESPL1)], endogenous [human (endogenous in HCT116)] chain 1 D127A, chain 1 E134A | 19 | 
Myc-tagged separase (FL) mutant S1501A [human] / 14-3-3ε (endogenous) [human (endogenous in HCT116)] chain 1 S1501A |  | 0.5
Myc-tagged separase (FL) mutant T1363A [human] / 14-3-3ε (endogenous) [human (endogenous in HCT116)] chain 1 T1363A |  | 45
HA-tagged 14-3-3ε WT mutant E134A [not stated] / separase [also known as separin (ESPL1)], endogenous [human (endogenous in HCT116)] chain 1 E134A | 8 | 
HA-tagged 14-3-3ε WT mutant D127A [not stated] / separase [also known as separin (ESPL1)], endogenous [human (endogenous in HCT116)] chain 1 D127A | 63 | 
